According to US20060019320A1, “Wnt mediated erbb signalling, compositions and uses related thereto” (priority 2002, published 2006):
Blank lines part the entries; values can stand above or below the molecule they belong to.

Tests used:
ERK1/2 = assay: phospho-ERK1/2 immunoblot (MAPK activity) in HC11 cells; assay type: cell-based, mouse
From the text: The MAPK and PI3K pathways are major signaling cascades downstream of activated ErbB receptors (Olayioye et al., 2000). Antisera specific for the active, phosphorylated forms of ERK1/2 and PKB, the major kinases on the respective pathways, were used to probe for their activity. 50 micrograms of WCL were immunoblotted essentially as described above with the exception that a phospho-ERK1/2 antibody (commercially available, New England Biolabs) or a phosphoPKB antibody was used. Membranes were stripped and reprobed for ERK1/2 (anti-p44/42 ERK, New England Biolabs).
Briefly, conditioned media (CM) from Wnt-HC11 cells prepared as described in Example 1 was tested for its effect on ErbB1 and MAPK activity, essentially as described above. Treatment of C-HC11 cells for 10 min with Wnt1- and Wnt5a-CM stimulated phospho-ERK1/2 levels 5-6-fold, whereas CM from C-HC11 cells had no effect.
To rule out the potential involvement of ErbB1 ligands in mediating the effects of Wnt-containing CM, we used secreted Frizzled-related protein-1 (sFRP-1), which binds Wnt preventing it from binding Fz (Uren et al., 2000). […]
The metalloproteinase inhibitors were next tested in the presence of Wnt-containing CM. […] Phospho-ERK1/2 levels were determined as above. […]

ErbB1 = target: T1, ErbB1 (Mus musculus, UniProt Q01279); assay: ErbB1 immunoprecipitation and phosphotyrosine immunoblot in HC11 cells; assay type: cell-based; details: HC11 cells, 100 ng/ml EGF for 10 minutes
T1 construct: ErbB1 was immunoprecipitated from 500 micrograms WCL and immunoblotted with a phosphotyrosine specific antibody; endogenous in cells; host or cells: HC11 mammary cells (C-HC11, Wnt1-HC11, Wnt5a-HC11)
Procedure: ErbB1 is transactivated by many classes of membrane proteins (Carpenter, 1999; Gschwind et al., 2001). However, Wnt/VFz-mediated activation of ErbB1 has not been reported previously. Since ErbB1 tyrosine phosphorylation is an essential step in ErbB1 activation, we examined whether Wnt can activate ErbB1, by immunoprecipitating the receptor form Wnt/HC11 cells and performing a Westem analysis with phosphotyrosine specific antiserum. For these experiments HC11 cells were grown over night in medium without EGF. As a control for ErbB1 activation, C-HC 11 and Wnt-HC11 cells were treated for 10 minutes with 100 ng/ml EGF. An ErbB1 selective kinase inhibitor PKI166 (Traxler et al., 2001) was also used in some experiments. For this, the cells were pretreated 1 hr with 5 microM PKI 166, or left untreated, before preparing WCLs, essentially as described in Example 1.
ErbB1 was immunoprecipitated from 500 micrograms WCL and immunoblotted with a phosphotyrosine specific antibody (anti-phosphotyrosine AG10, Upstate Biotechnology) essentially as described previously (Lane et al., 2000). Membranes were stripped by placing them in 2% SDS, 62.5 mM Tris pH 6.8, 100 mM beta-mercaptoethanol at 60° C. for 30 min. Stripped membranes were reprobed for ErbB1 using a commercially available antibody (antibody 1005,Santa Cruz Biotechnology). […]

cyclin D1 = assay: Cyclin D1 immunoblot in HC11 cells; assay type: cell-based, mouse; details: control (C-HC11) cells treated 6 hr
Procedure: Briefly, WCL was prepared from HC11, Wnt1- and Wnt5a-expressing HC11 cells and 50 μg immunoblotted essentially as described above using commercially available antibodies against cyclin D1 (NovaCastra) or cyclin D2 (SantaCruz). Both Wnt1- and Wnt5a-HC11 cells express higher levels of cyclin D1, in comparison to HC11 cells. In addition, Wnt1-HC11 cells but not C- or Wnt5a-HC11 cells express cyclin D2.
C-HC11 cells were also treated 6 hrs with CM from Wnt-HC11 cells. WCL were prepared and 50 μg was immunoblotted for Cyclin D1 or Cyclin D2. Similar to the results with the Wnt-HC11 cell lines, both Wnts (CM) stimulated Cyclin D1 expression, while only Wnt1 enhanced cyclin D2 levels.
To assess the contribution of Wnt-transactivated ErbB1 on cyclin D1 and D2 expression, C- and Wnt-HC11 cells were treated 6 hr with PKI166 or CGS27023A or EGF. […] In contrast, the ErbB1 inhibitor had no effect on cyclin D2 levels. […] Thus, cyclin D1 and cyclin D2 are differentially controlled. Both Wnt1 and Wnt5a transactivate ErbB1, which results in increased expression of cyclin D1; in contrast cyclinD2 is only elevated in Wnt1 expressing cells and this is independent of ErbB1 activity.

B1: sFRP1: secreted Frizzled-related protein-1, binds Wnt preventing it from binding Fz; used as CM from sFRP1-producing HEK293 cells (protein, UniProt Q8N474 32-314, looked up)
Secreted frizzled-related …: SEYDYVSFQSDIGPYQSGRFYTKPPQCVDIPADLRLCHNVGYKKMVLPNLLEHETMAEVKQQASSWVPLLNKNCHAGTQVFLCSLFAPVCLDRPIYPCRWLCEAVRDSCEPVMQFFGFYWPEMLKCDKFPEGDVCIAMTPPNATEASKPQGTTVCPPCDNELKSEAIIEHLCASEFALRMKIKEVKKENGDKKIVPKKKKPLKLGPIKKKDLKKLVLYLKNGADCPCHQLDNLSHHFLIMGRKVKSQYLLTAIHKWDKKNKEFKNFMKKMKNHECPTFQSVFK
Wnt1 and Wnt5a CM-induced increase of phospho-ERK1/2 levels (ERK1/2; C-HC11, CM from sFRP1-producing 293 cells premixed 1:1 with Wnt-containing CM, 10 min): prevented

ErbB1 phosphorylation (ErbB1): strong increase
B2: EGF: an ErbB1 activator, used as control for ErbB1 activation (protein, UniProt P01133 23-1207, looked up)
Pro-epidermal growth factor: PQHWSCPEGTLAGNGNSTCVGPAPFLIFSHGNSIFRIDTEGTNYEQLVVDAGVSVIMDFHYNEKRIYWVDLERQLLQRVFLNGSRQERVCNIEKNVSGMAINWINEEVIWSNQQEGIITVTDMKGNNSHILLSALKYPANVAVDPVERFIFWSSEVAGSLYRADLDGVGVKALLETSEKITAVSLDVLDKRLFWIQYNREGSNSLICSCDYDGGSVHISKHPTQHNLFAMSLFGDRIFYSTWKMKTIWIANKHTGKDMVRINLHSSFVPLGELKVVHPLAQPKAEDDTWEPEQKLCKLRKGNCSSTVCGQDLQSHLCMCAEGYALSRDRKYCEDVNECAFWNHGCTLGCKNTPGSYYCTCPVGFVLLPDGKRCHQLVSCPRNVSECSHDCVLTSEGPLCFCPEGSVLERDGKTCSGCSSPDNGGCSQLCVPLSPVSWECDCFPGYDLQLDEKSCAASGPQPFLLFANSQDIRHMHFDGTDYGTLLSQQMGMVYALDHDPVENKIYFAHTALKWIERANMDGSQRERLIEEGVDVPEGLAVDWIGRRFYWTDRGKSLIGRSDLNGKRSKIITKENISQPRGIAVHPMAKRLFWTDTGINPRIESSSLQGLGRLVIASSDLIWPSGITIDFLTDKLYWCDAKQSVIEMANLDGSKRRRLTQNDVGHPFAVAVFEDYVWFSDWAMPSVMRVNKRTGKDRVRLQGSMLKPSSLVVVHPLAKPGADPCLYQNGGCEHICKKRLGTAWCSCREGFMKASDGKTCLALDGHQLLAGGEVDLKNQVTPLDILSKTRVSEDNITESQHMLVAEIMVSDQDDCAPVGCSMYARCISEGEDATCQCLKGFAGDGKLCSDIDECEMGVPVCPPASSKCINTEGGYVCRCSEGYQGDGIHCLDIDECQLGEHSCGENASCTNTEGGYTCMCAGRLSEPGLICPDSTPPPHLREDDHHYSVRNSDSECPLSHDGYCLHDGVCMYIEALDKYACNCVVGYIGERCQYRDLKWWELRHAGHGQQQKVIVVAVCVVVLVMLLLLSLWGAHYYRTQKLLSKNPKNPYEESSRDVRSRRPADTEDGMSSCPQPWFVVIKEHQDLKNGGQPVAGEDGQAADGSMQPTSWRQEPQLCGMGTEQGCWIPVSSDKGSCPQVMERSFHMPSYGTQTLEGGVEKPHSLLSANPLWQQRALDPPHQMELTQ
modifications: Pro-epidermal growth factor
ERK1/2 phosphorylation (ERK1/2; C-HC11 cells, EGF 10 minutes in the presence of sFRP1): able to induce | cyclin D1 expression (cyclin D1): stimulate
